Patent US20220298218A1 (ANTAG THERAPEUTICS, published 2022)
*1 amine or outer side, *2 acyl side, *3 side chain or, on linkers, in order; H or OH if unused. Where no end group is shown, it is not given here. Side-chain parts run from the residue outwards. The star is where a group is joined. C18 diacid = O=C(O)CCCCCCCCCCCCCCCCC(=O)*; C16 diacid = O=C(O)CCCCCCCCCCCCCCC(=O)*; γGlu = O=C(O)[C@H](CCC(=O)[*:2])N[*:1]; AEEA = NCCOCCOCC(=O)O

T1: human GIP receptor (human, UniProt P48546 22-466)
T1 sequence (looked up): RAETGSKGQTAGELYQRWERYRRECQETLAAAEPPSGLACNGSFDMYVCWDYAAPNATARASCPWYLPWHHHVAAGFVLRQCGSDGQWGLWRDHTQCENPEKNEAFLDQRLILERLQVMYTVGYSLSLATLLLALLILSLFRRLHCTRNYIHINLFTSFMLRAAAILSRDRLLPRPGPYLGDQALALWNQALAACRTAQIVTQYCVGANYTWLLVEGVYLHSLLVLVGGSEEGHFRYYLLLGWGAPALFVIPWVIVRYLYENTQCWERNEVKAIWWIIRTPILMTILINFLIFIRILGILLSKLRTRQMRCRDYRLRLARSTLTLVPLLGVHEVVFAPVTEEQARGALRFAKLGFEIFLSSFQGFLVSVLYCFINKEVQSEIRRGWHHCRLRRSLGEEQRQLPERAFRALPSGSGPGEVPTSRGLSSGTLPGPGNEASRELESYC

B1: AT630 (peptide)
peptide: EGTFISDYSIAMDKIKQQDFVNWLLAQKPSSGAPPPS
HELM: PEPTIDE1{E.G.T.F.I.S.D.Y.S.I.A.M.D.K.I.K.Q.Q.D.F.V.N.W.L.L.A.Q.K.P.S.S.G.A.P.P.P.S}|PEPTIDE2{[O=C(O)CCCCCCCCCCCCCCC(=O)[*:2]].[gGlu]}$PEPTIDE1,PEPTIDE2,16:R3-2:R2$$$V2.0; N-terminus assumed
SMILES: CC[C@H](C)[C@H](NC(=O)[C@H](CO)NC(=O)[C@H](Cc1ccc(O)cc1)NC(=O)[C@H](CC(=O)O)NC(=O)[C@H](CO)NC(=O)[C@@H](NC(=O)[C@H](Cc1ccccc1)NC(=O)[C@@H](NC(=O)CNC(=O)[C@@H](N)CCC(=O)O)[C@@H](C)O)[C@@H](C)CC)C(=O)N[C@@H](C)C(=O)N[C@@H](CCSC)C(=O)N[C@@H](CC(=O)O)C(=O)N[C@@H](CCCCN)C(=O)N[C@H](C(=O)N[C@@H](CCCCNC(=O)CC[C@H](NC(=O)CCCCCCCCCCCCCCC(=O)O)C(=O)O)C(=O)N[C@@H](CCC(N)=O)C(=O)N[C@@H](CCC(N)=O)C(=O)N[C@@H](CC(=O)O)C(=O)N[C@@H](Cc1ccccc1)C(=O)N[C@H](C(=O)N[C@@H](CC(N)=O)C(=O)N[C@@H](Cc1c[nH]c2ccccc12)C(=O)N[C@@H](CC(C)C)C(=O)N[C@@H](CC(C)C)C(=O)N[C@@H](C)C(=O)N[C@@H](CCC(N)=O)C(=O)N[C@@H](CCCCN)C(=O)N1CCC[C@H]1C(=O)N[C@@H](CO)C(=O)N[C@@H](CO)C(=O)NCC(=O)N[C@@H](C)C(=O)N1CCC[C@H]1C(=O)N1CCC[C@H]1C(=O)N1CCC[C@H]1C(=O)N[C@@H](CO)C(=O)O)C(C)C)[C@@H](C)CC
B2: AT632 (peptide)
peptide: TFISDYKIAMDKIHQQDFVNWLLAQKPSSGAPPPS
HELM: PEPTIDE1{T.F.I.S.D.Y.K.I.A.M.D.K.I.H.Q.Q.D.F.V.N.W.L.L.A.Q.K.P.S.S.G.A.P.P.P.S}|PEPTIDE2{[O=C(O)CCCCCCCCCCCCCCC(=O)[*:2]].[gGlu]}$PEPTIDE1,PEPTIDE2,7:R3-2:R2$$$V2.0; N-terminus assumed
SMILES: CC[C@H](C)[C@H](NC(=O)[C@H](CCCCNC(=O)CC[C@H](NC(=O)CCCCCCCCCCCCCCC(=O)O)C(=O)O)NC(=O)[C@H](Cc1ccc(O)cc1)NC(=O)[C@H](CC(=O)O)NC(=O)[C@H](CO)NC(=O)[C@@H](NC(=O)[C@H](Cc1ccccc1)NC(=O)[C@@H](N)[C@@H](C)O)[C@@H](C)CC)C(=O)N[C@@H](C)C(=O)N[C@@H](CCSC)C(=O)N[C@@H](CC(=O)O)C(=O)N[C@@H](CCCCN)C(=O)N[C@H](C(=O)N[C@@H](Cc1c[nH]cn1)C(=O)N[C@@H](CCC(N)=O)C(=O)N[C@@H](CCC(N)=O)C(=O)N[C@@H](CC(=O)O)C(=O)N[C@@H](Cc1ccccc1)C(=O)N[C@H](C(=O)N[C@@H](CC(N)=O)C(=O)N[C@@H](Cc1c[nH]c2ccccc12)C(=O)N[C@@H](CC(C)C)C(=O)N[C@@H](CC(C)C)C(=O)N[C@@H](C)C(=O)N[C@@H](CCC(N)=O)C(=O)N[C@@H](CCCCN)C(=O)N1CCC[C@H]1C(=O)N[C@@H](CO)C(=O)N[C@@H](CO)C(=O)NCC(=O)N[C@@H](C)C(=O)N1CCC[C@H]1C(=O)N1CCC[C@H]1C(=O)N1CCC[C@H]1C(=O)N[C@@H](CO)C(=O)O)C(C)C)[C@@H](C)CC
B3: AT633 (peptide)
peptide: Ac-EGTFISDYSIAMDKIK(C16 diacid)QQDFVNWLLAQKPSSGAPPPS-OH
SMILES: CC[C@H](C)[C@H](NC(=O)[C@H](CO)NC(=O)[C@H](Cc1ccc(O)cc1)NC(=O)[C@H](CC(=O)O)NC(=O)[C@H](CO)NC(=O)[C@@H](NC(=O)[C@H](Cc1ccccc1)NC(=O)[C@@H](NC(=O)CNC(=O)[C@H](CCC(=O)O)NC(C)=O)[C@@H](C)O)[C@@H](C)CC)C(=O)N[C@@H](C)C(=O)N[C@@H](CCSC)C(=O)N[C@@H](CC(=O)O)C(=O)N[C@@H](CCCCN)C(=O)N[C@H](C(=O)N[C@@H](CCCCNC(=O)CCCCCCCCCCCCCCC(=O)O)C(=O)N[C@@H](CCC(N)=O)C(=O)N[C@@H](CCC(N)=O)C(=O)N[C@@H](CC(=O)O)C(=O)N[C@@H](Cc1ccccc1)C(=O)N[C@H](C(=O)N[C@@H](CC(N)=O)C(=O)N[C@@H](Cc1c[nH]c2ccccc12)C(=O)N[C@@H](CC(C)C)C(=O)N[C@@H](CC(C)C)C(=O)N[C@@H](C)C(=O)N[C@@H](CCC(N)=O)C(=O)N[C@@H](CCCCN)C(=O)N1CCC[C@H]1C(=O)N[C@@H](CO)C(=O)N[C@@H](CO)C(=O)NCC(=O)N[C@@H](C)C(=O)N1CCC[C@H]1C(=O)N1CCC[C@H]1C(=O)N1CCC[C@H]1C(=O)N[C@@H](CO)C(=O)O)C(C)C)[C@@H](C)CC
B4: AT627 (peptide)
peptide: EGTFISDYSIAMDKIK(C18 diacid)QQDFVNWLLAQKPSSGAPPPS-OH
modifications: N-terminus assumed
SMILES: CC[C@H](C)[C@H](NC(=O)[C@H](CO)NC(=O)[C@H](Cc1ccc(O)cc1)NC(=O)[C@H](CC(=O)O)NC(=O)[C@H](CO)NC(=O)[C@@H](NC(=O)[C@H](Cc1ccccc1)NC(=O)[C@@H](NC(=O)CNC(=O)[C@@H](N)CCC(=O)O)[C@@H](C)O)[C@@H](C)CC)C(=O)N[C@@H](C)C(=O)N[C@@H](CCSC)C(=O)N[C@@H](CC(=O)O)C(=O)N[C@@H](CCCCN)C(=O)N[C@H](C(=O)N[C@@H](CCCCNC(=O)CCCCCCCCCCCCCCCCC(=O)O)C(=O)N[C@@H](CCC(N)=O)C(=O)N[C@@H](CCC(N)=O)C(=O)N[C@@H](CC(=O)O)C(=O)N[C@@H](Cc1ccccc1)C(=O)N[C@H](C(=O)N[C@@H](CC(N)=O)C(=O)N[C@@H](Cc1c[nH]c2ccccc12)C(=O)N[C@@H](CC(C)C)C(=O)N[C@@H](CC(C)C)C(=O)N[C@@H](C)C(=O)N[C@@H](CCC(N)=O)C(=O)N[C@@H](CCCCN)C(=O)N1CCC[C@H]1C(=O)N[C@@H](CO)C(=O)N[C@@H](CO)C(=O)NCC(=O)N[C@@H](C)C(=O)N1CCC[C@H]1C(=O)N1CCC[C@H]1C(=O)N1CCC[C@H]1C(=O)N[C@@H](CO)C(=O)O)C(C)C)[C@@H](C)CC
B5: AT629 (peptide)
peptide: EGTFISDYSIAMDKIK([AEEA-AEEA-γGlu-C16 diacid])QQDFVNWLLAQKPSSGAPPPS-OH
modifications: N-terminus assumed
SMILES: CC[C@H](C)[C@H](NC(=O)[C@H](CO)NC(=O)[C@H](Cc1ccc(O)cc1)NC(=O)[C@H](CC(=O)O)NC(=O)[C@H](CO)NC(=O)[C@@H](NC(=O)[C@H](Cc1ccccc1)NC(=O)[C@@H](NC(=O)CNC(=O)[C@@H](N)CCC(=O)O)[C@@H](C)O)[C@@H](C)CC)C(=O)N[C@@H](C)C(=O)N[C@@H](CCSC)C(=O)N[C@@H](CC(=O)O)C(=O)N[C@@H](CCCCN)C(=O)N[C@H](C(=O)N[C@@H](CCCCNC(=O)COCCOCCNC(=O)COCCOCCNC(=O)CC[C@H](NC(=O)CCCCCCCCCCCCCCC(=O)O)C(=O)O)C(=O)N[C@@H](CCC(N)=O)C(=O)N[C@@H](CCC(N)=O)C(=O)N[C@@H](CC(=O)O)C(=O)N[C@@H](Cc1ccccc1)C(=O)N[C@H](C(=O)N[C@@H](CC(N)=O)C(=O)N[C@@H](Cc1c[nH]c2ccccc12)C(=O)N[C@@H](CC(C)C)C(=O)N[C@@H](CC(C)C)C(=O)N[C@@H](C)C(=O)N[C@@H](CCC(N)=O)C(=O)N[C@@H](CCCCN)C(=O)N1CCC[C@H]1C(=O)N[C@@H](CO)C(=O)N[C@@H](CO)C(=O)NCC(=O)N[C@@H](C)C(=O)N1CCC[C@H]1C(=O)N1CCC[C@H]1C(=O)N1CCC[C@H]1C(=O)N[C@@H](CO)C(=O)O)C(C)C)[C@@H](C)CC
B6: AT626 (peptide)
peptide: EGTFISDYSIAMDKIK(C16 diacid)QQDFVNWLLEGGPSSGAPPPS-OH
modifications: N-terminus assumed
SMILES: CC[C@H](C)[C@H](NC(=O)[C@H](CO)NC(=O)[C@H](Cc1ccc(O)cc1)NC(=O)[C@H](CC(=O)O)NC(=O)[C@H](CO)NC(=O)[C@@H](NC(=O)[C@H](Cc1ccccc1)NC(=O)[C@@H](NC(=O)CNC(=O)[C@@H](N)CCC(=O)O)[C@@H](C)O)[C@@H](C)CC)C(=O)N[C@@H](C)C(=O)N[C@@H](CCSC)C(=O)N[C@@H](CC(=O)O)C(=O)N[C@@H](CCCCN)C(=O)N[C@H](C(=O)N[C@@H](CCCCNC(=O)CCCCCCCCCCCCCCC(=O)O)C(=O)N[C@@H](CCC(N)=O)C(=O)N[C@@H](CCC(N)=O)C(=O)N[C@@H](CC(=O)O)C(=O)N[C@@H](Cc1ccccc1)C(=O)N[C@H](C(=O)N[C@@H](CC(N)=O)C(=O)N[C@@H](Cc1c[nH]c2ccccc12)C(=O)N[C@@H](CC(C)C)C(=O)N[C@@H](CC(C)C)C(=O)N[C@@H](CCC(=O)O)C(=O)NCC(=O)NCC(=O)N1CCC[C@H]1C(=O)N[C@@H](CO)C(=O)N[C@@H](CO)C(=O)NCC(=O)N[C@@H](C)C(=O)N1CCC[C@H]1C(=O)N1CCC[C@H]1C(=O)N1CCC[C@H]1C(=O)N[C@@H](CO)C(=O)O)C(C)C)[C@@H](C)CC

What follows are binders tested against T1, human GIP receptor (assay: cell-based or functional assay).

| Binder | cAMP agonism % Emax [%] | cAMP antagonism [nM] | cAMP antagonism % inhib [%] | cAMP antagonism pIC50 |
| --- | --- | --- | --- | --- |
| B1 | 0 | 11.2 | 85 | 8 |
| B2 | 0 | 8.41 | 100 | 8.1 |
| B3 | 23 |  |  | ~8.8 |
| EGTFISDYSIAMDKIK(C18)QQDFVNWLLAQKPSSGAPPPS-OH [AT628] | 0 | 58.4 | 94 | 7.2 |
| B4 | 0 | 15.9 | 97 | 7.8 |
| B5 | 0 | 17.1 | 93 | 7.8 |
| B6 | 0 | 4.47 | 100 | 8.4 |
